± gives the uncertainty stated by the source.
Assay: self-splicing fitness, log relative to wild type (ln ratio); higher = more splicing; Tetrahymena group I intron in knt gene, E. coli kanamycin selection, DiMSum; sequences stand for … in CUCUCU…GGAGGGAAAAGUUAUCAGGCAUGCACCUGGUAGCUAGUCUUUAAACCAAUAGAUUGCAUCGGUUUAAAAGGCAAGACCGUCAAAUUGCGGGAAAGGGGUCAACAGCCGUUCAGUACCAAGUCUCAGGGGAAACUUUGAGAUGGCCUUGCAAAGGGUAUGGUAAUAAGCUGACGGACAUGGUCCUAACCACGCAGCCAAGUCCUAAGUCAACAGAUCUUCUGUUGAUAUGGAUGCAGUUCACAGACUAAAUGUCGGUCGGGGAAGAUGUAUUCUUCUCAUAAGAUAUAGUCGGACCUCUCCUUAAUGGGAGCUAGCGGAUGAAGUGAUGCAACACUGGAGCCGCUGGGAACUAAUUUGUAUGCGAAAGUAUAUUGAUUAGUUUUGGAGUACUCGUGGUCG
Method in brief: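 The eight P1ex-region nucleotides of an intron in the knt kanamycin-resistance gene on pET-22b(+) were all randomised and the library put into E. coli BL21(DE3). Six replicate transformations were grown overnight at 37°C or 30°C on LB agar with or without 25 μg/mL kanamycin, together with 100 μg/mL carbenicillin, 50 μM IPTG and 0.2% rhamnose. Colonies were pooled and amplicon-sequenced on an Illumina HiSeq 2500. Fitness from DiMSum is the error-weighted combination of wild-type-normalised replicate fold changes, kanamycin over none.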

Sequence	self-splicing fitness (ln) (30 °C)	self-splicing fitness (ln) (37 °C)
UCUUAGCAAUAUUACGCGAG	-2.25 ± 0.17	-2.92 ± 0.28
UCUUAGCAAUAUUACGGACA	-2.63 ± 0.2	-1.19 ± 0.14
UCUUAGCAAUAUUACGGAGU	-3.29 ± 0.13	-2.28 ± 0.11
UCUUAGCAAUAUUACGGGUA	-1.46 ± 0.076	-0.741 ± 0.084
UCUUAGCAAUAUUACGGGUG	-0.927 ± 0.055	-0.165 ± 0.069
UCUUAGCAAUAUUACGGUUA	–	-2.37 ± 0.39
UCUUAGCAAUAUUACGUAAC	-3.34 ± 0.26	-1.95 ± 0.32
UCUUAGCAAUAUUACGUACA	-2.58 ± 0.19	-1.28 ± 0.16
UCUUAGCAAUAUUACGUAGC	-3.98 ± 0.46	-1.98 ± 0.21
UCUUAGCAAUAUUACGUCAG	-1.01 ± 0.16	-1.28 ± 0.2
UCUUAGCAAUAUUACGUGUA	-0.944 ± 0.17	-1.19 ± 0.2
UCUUAGCAAUAUUACGUUCG	-2.21 ± 0.11	-1.38 ± 0.18
UCUUAGCAAUAUUACGUUUG	-3.07 ± 0.17	-2.48 ± 0.27
UGAAAGCAAUAUUACGAAAC	–	-1.79 ± 0.47
UGAAAGCAAUAUUACGAAGC	–	-2.07 ± 0.28
UGAAAGCAAUAUUACGAAUG	-0.602 ± 0.066	-0.0842 ± 0.078
UGAAAGCAAUAUUACGAAUU	-1.7 ± 0.26	-1.66 ± 0.29
UGAAAGCAAUAUUACGAGCA	-0.581 ± 0.089	0.406 ± 0.11
UGAAAGCAAUAUUACGAGUU	-3.31 ± 0.15	-0.915 ± 0.095
UGAAAGCAAUAUUACGAUGG	-1.59 ± 0.086	-0.618 ± 0.11

Sequence	self-splicing fitness (ln) (30 °C)	self-splicing fitness (ln) (37 °C)
UGAAAGCAAUAUUACGCAUC	–	-3.14 ± 0.28
UGAAAGCAAUAUUACGCUCC	-1.4 ± 0.12	-0.227 ± 0.14
UGAAAGCAAUAUUACGCUUC	-2.32 ± 0.42	-2.29 ± 0.29
UGAAAGCAAUAUUACGGACA	-0.0695 ± 0.088	-0.28 ± 0.096
UGAAAGCAAUAUUACGGCGU	-1.12 ± 0.095	0.0159 ± 0.11
UGAAAGCAAUAUUACGGGCA	-0.0393 ± 0.081	0.386 ± 0.092
UGAAAGCAAUAUUACGGUUC	-4.11 ± 0.26	-2.41 ± 0.23
UGAAAGCAAUAUUACGUAAG	-0.503 ± 0.087	-0.0639 ± 0.12
UGAAAGCAAUAUUACGUCCC	-2.54 ± 0.45	–
UGAAAGCAAUAUUACGUUCA	-2.03 ± 0.13	-1.48 ± 0.14
UGAAAGCAAUAUUACGUUCG	-1.51 ± 0.094	-0.54 ± 0.11
UGACAGCAAUAUUACGAAAC	-3.96 ± 0.24	-1.96 ± 0.26
UGACAGCAAUAUUACGAUAA	-0.561 ± 0.052	0.4 ± 0.072
UGACAGCAAUAUUACGAUAU	-2.67 ± 0.16	-1.9 ± 0.14
UGACAGCAAUAUUACGAUUU	-0.733 ± 0.094	-0.108 ± 0.1
UGACAGCAAUAUUACGCACA	0.341 ± 0.092	0.528 ± 0.12
UGACAGCAAUAUUACGCACC	-1.38 ± 0.12	-0.767 ± 0.17
UGACAGCAAUAUUACGCCUA	0.107 ± 0.069	0.414 ± 0.086
UGACAGCAAUAUUACGCGAC	-1.82 ± 0.14	-1.86 ± 0.19

From the supplement of paper PMC7877785
